Source: patent publication US11052132B2, “Methods and compositions for treating cystic fibrosis” (PHASEBIO PHARMACEUTICALS, INC., priority 2014, dated 2021)

Experiments:
[1] = target: T1, F508del-CFTR (Homo sapiens, UniProt P13569, DEL508-508); test: Iodide efflux assay on JME/CF15 cells (rescue of F508del-CFTR function); format: cell-based; settings: for effect on iodide efflux, alone / plateau concentration (iodide efflux rate) / EC50: JME/CF15 cells at 37° C.; for effect on iodide efflux, alone: acute treatment with 1 μM VX770 alone (FIG. 6A); for effect on iodide efflux in combination with VX-770: 350 nM PB1046 18 hours or 140 nM PB1120 24 hours, plus acute 1 μM VX-770 (FIG. 6B, C); for correct and/or potentiate the activity of F508del-CFTR (iodide efflux) compared with VX-809 and VX-661: 37° C., 900 nM VIP 24 h, 1 μM PB1120 24 h, 1.2 μM PB1046 18 h, versus 1 μM VX809 24 h, 3 μM VX661 24 h (FIG. 5); for plateau concentration (iodide efflux rate) / EC50: pre-incubated 2 hours at 30-3,500 nM, then cAMP activator cocktail, n=3-5; for EC50: read-out: EC50 (iodide efflux rate)
T1 construct: A human nasal epithelial cell line JME/CF15, derived from a Cystic Fibrosis patient homozygous for the F508del mutation; endogenous in cells; host or cells: JME/CF15 human nasal epithelial cell line (CF patient, F508del homozygous)
T1 sequence (P13569 with tags, fused parts or gaps DEL508-508): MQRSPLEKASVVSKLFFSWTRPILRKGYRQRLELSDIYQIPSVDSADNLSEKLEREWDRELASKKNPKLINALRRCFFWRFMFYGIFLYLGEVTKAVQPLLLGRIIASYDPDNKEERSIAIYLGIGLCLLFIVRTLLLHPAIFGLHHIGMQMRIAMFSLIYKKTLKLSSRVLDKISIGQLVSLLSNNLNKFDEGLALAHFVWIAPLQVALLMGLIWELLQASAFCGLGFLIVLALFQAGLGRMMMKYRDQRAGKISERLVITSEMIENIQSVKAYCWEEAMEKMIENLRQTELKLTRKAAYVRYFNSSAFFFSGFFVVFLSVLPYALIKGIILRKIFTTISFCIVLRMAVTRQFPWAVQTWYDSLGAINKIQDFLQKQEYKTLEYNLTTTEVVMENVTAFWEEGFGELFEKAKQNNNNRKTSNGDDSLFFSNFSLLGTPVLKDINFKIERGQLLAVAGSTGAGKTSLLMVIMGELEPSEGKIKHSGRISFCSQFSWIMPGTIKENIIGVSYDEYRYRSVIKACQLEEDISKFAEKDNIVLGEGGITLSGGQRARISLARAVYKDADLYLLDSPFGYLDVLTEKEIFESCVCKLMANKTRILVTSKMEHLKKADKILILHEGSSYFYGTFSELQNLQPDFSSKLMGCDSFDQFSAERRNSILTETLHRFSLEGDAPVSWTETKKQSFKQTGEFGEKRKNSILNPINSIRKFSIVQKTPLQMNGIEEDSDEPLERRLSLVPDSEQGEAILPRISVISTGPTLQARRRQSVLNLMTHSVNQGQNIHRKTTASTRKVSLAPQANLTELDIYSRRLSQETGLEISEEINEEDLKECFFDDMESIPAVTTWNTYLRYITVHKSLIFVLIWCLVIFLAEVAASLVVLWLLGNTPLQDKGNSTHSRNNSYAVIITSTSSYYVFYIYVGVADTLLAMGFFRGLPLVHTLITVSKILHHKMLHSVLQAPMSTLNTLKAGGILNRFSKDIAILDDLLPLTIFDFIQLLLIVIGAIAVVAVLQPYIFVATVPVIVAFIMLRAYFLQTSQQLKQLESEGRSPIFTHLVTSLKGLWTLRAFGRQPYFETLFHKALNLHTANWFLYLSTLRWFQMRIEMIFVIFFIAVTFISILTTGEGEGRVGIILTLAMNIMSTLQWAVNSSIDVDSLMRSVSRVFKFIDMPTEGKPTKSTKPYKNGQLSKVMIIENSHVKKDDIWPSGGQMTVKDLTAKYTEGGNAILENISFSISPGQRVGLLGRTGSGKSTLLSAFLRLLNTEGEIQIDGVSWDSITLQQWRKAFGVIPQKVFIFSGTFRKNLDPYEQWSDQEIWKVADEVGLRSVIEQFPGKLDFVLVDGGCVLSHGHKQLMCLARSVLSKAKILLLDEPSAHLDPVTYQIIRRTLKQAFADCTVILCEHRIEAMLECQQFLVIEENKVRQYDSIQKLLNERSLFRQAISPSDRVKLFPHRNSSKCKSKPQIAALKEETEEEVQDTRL
Experimental: A human nasal epithelial cell line JME/CF15, derived from a Cystic Fibrosis patient homozygous for the F508del mutation (Jefferson (1990)) was used to evaluate the effect of VIP compounds on CFTR protein function. Cells were cultured at 37° C. with at 5% CO2— 95% humidity in DMEM-F12 with 10% FBS and supplemented with transferrin (5 μg/ml), triiodothyronine (2 nM), insulin (5 μg/ml), hydrocortisone (1.1 μM), EGF (1.64 nM), epinephrine (5.5 μM), and adenine (18 μM). Cells were maintained at 37° C. and incubated with […] VIP, 1.2 μM PB1046 (SEQ ID NO: 15), or 1 μM PB1120 (SEQ ID NO: 20) for 18 or 24 hours before the assaying for iodide efflux. For comparison, cells were incubated with the CFTR correctors VX-809 (lumacaftor) or VX-661.
To evaluate the effect of test compounds on CFTR protein function, the activity of the CFTR chloride channel was determined by studying the efflux of iodide ions using an iodide sensitive electrode. Cells were incubated with NaI loading buffer (136 mM NaI, 3 mM KNO3, 2 mM Ca(NO3), 11 mM glucose, 20 mM HEPES, pH 7.4) for 1 hour at room temperature. Extracellular NaI solution was then removed and replaced with efflux buffer in which NaI was replaced with NaNO3. Samples were taken and replaced at 1 minute intervals. The first 3 samples taken before addition of the CFTR activation cocktail (time 0-2 min) were used to establish a stable baseline of ion efflux. CFTR activation cocktail (150 μM cpt-cAMP+1 mM IBMX+10 μM forskolin) was included in the efflux buffer from time 3 minutes. NaI concentration was then measured using an iodide sensitive electrode moved over each sample by a computerised autosampler and the NaI efflux rate constant k (min^−1) was calculated. Iodide efflux peaks (maximum efflux rate during stimulation—basal level) were compared.
Iodide efflux rates were measured on JME/CF15 cells maintained at 37° C. and pre-incubated with VIP, PB1046, or PB1120 at 30-3,500 nM for 2 hours. […] Rescued F508del-CFTR was stimulated by a cAMP activator cocktail added to the efflux buffer. […] CFTRinh172 (20 μM) was included in the incubation, confirming that the iodide efflux was mediated by CFTR.
To study the effects of administration of PB1120 or PB1046 together with CFTR potentiators or CFTR correctors, iodide efflux assays were performed as described in Example 1.

[2] = system: F508del-CFTR; test: Immunoblotting / immunostaining of F508del-CFTR maturation and membrane expression in JME/CF15 cells; format: cell-based, human; settings: JME/CF15 cells at 37° C., incubated with compound for 24 hours (FIG. 4)
Experimental: JME/CF15 cells were immunostained for CFTR (A).
Immunoblotting was performed to visualize the […] of the F508del-CFTR in the epithelial cells treated with VIP, PB1120, or PB1046.

Molecule | effect on iodide efflux, alone [1] | effect on iodide efflux, alone ([1]; listed as VX770) | iodide efflux activity rescued by VIP therapeutics when the CFTR inhibitor is included ([1]; CFTRinh172 20 μM, 30 minutes before and during the efflux experiments (FIG. 3)) | effect on iodide efflux in combination with VX-770 [1] | effect on iodide efflux in combination with VX-809 ([1]; 1 μM PB1120 and 1 μM VX-809 for 24 hours (FIG. 7)) | correct and/or potentiate the activity of F508del-CFTR (iodide efflux) compared with VX-809 and VX-661 [1] | plateau concentration (iodide efflux rate) [1] [nM] | EC50 [1] [µM] | F508del-CFTR maturation and membrane expression [2]
CC(C)(C)c1cc(C(C)(C)C)c(NC(=O)c2c[nH]c3ccccc3c2=O)cc1O [VX-770, ivacaftor, reference compound] | no effect | did not produce any significant stimulation |  |  |  |  |  |  | 
O=C(O)c1ccc(/C=C2\SC(=S)N(c3cccc(C(F)(F)F)c3)C2=O)cc1 [CFTRinh172, reference compound] |  |  | significantly reduced |  |  |  |  |  | 
PB1120: long lasting, stable VIP therapeutic which includes ELP sequences; VIP-ELP fusion, SEQ ID NO: 20 (protein, VIP ELP1-120) HSDAVFTDNYTRLRKQMAVKKYLNSILNVPGVGVPGVGVPGGGVPGAGVPGVGVPGVGVPGVGVPGGGVPGAGVPGGGVPGVGVPGVGVPGGGVPGAGVPGVGVPGVGVPGVGVPGGGVPGAGVPGGGVPGVGVPGVGVPGGGVPGAGVPGVGVPGVGVPGVGVPGGGVPGAGVPGGGVPGVGVPGVGVPGGGVPGAGVPGVGVPGVGVPGVGVPGGGVPGAGVPGGGVPGVGVPGVGVPGGGVPGAGVPGVGVPGVGVPGVGVPGGGVPGAGVPGGGVPGVGVPGVGVPGGGVPGAGVPGVGVPGVGVPGVGVPGGGVPGAGVPGGGVPGVGVPGVGVPGGGVPGAGVPGVGVPGVGVPGVGVPGGGVPGAGVPGGGVPGVGVPGVGVPGGGVPGAGVPGVGVPGVGVPGVGVPGGGVPGAGVPGGGVPGVGVPGVGVPGGGVPGAGVPGVGVPGVGVPGVGVPGGGVPGAGVPGGGVPGVGVPGVGVPGGGVPGAGVPGVGVPGVGVPGVGVPGGGVPGAGVPGGGVPGVGVPGVGVPGGGVPGAGVPGVGVPGVGVPGVGVPGGGVPGAGVPGGGVPGVGVPGVGVPGGGVPGAGVPGVGVPGVGVPGVGVPGGGVPGAGVPGGGVPGWP |  |  |  | synergistic effect | synergism | equivalent or greater extent than VX-809 and VX-661 | 1000 | 0.14 | corrected
PB1046: long lasting, stable VIP therapeutic which includes ELP sequences; VIP-ELP fusion, SEQ ID NO: 15 (protein, M-VIP ELP1-120) MHSDAVFTDNYTRLRKQMAVKKYLNSILNVPGVGVPGVGVPGGGVPGAGVPGVGVPGVGVPGVGVPGGGVPGAGVPGGGVPGVGVPGVGVPGGGVPGAGVPGVGVPGVGVPGVGVPGGGVPGAGVPGGGVPGVGVPGVGVPGGGVPGAGVPGVGVPGVGVPGVGVPGGGVPGAGVPGGGVPGVGVPGVGVPGGGVPGAGVPGVGVPGVGVPGVGVPGGGVPGAGVPGGGVPGVGVPGVGVPGGGVPGAGVPGVGVPGVGVPGVGVPGGGVPGAGVPGGGVPGVGVPGVGVPGGGVPGAGVPGVGVPGVGVPGVGVPGGGVPGAGVPGGGVPGVGVPGVGVPGGGVPGAGVPGVGVPGVGVPGVGVPGGGVPGAGVPGGGVPGVGVPGVGVPGGGVPGAGVPGVGVPGVGVPGVGVPGGGVPGAGVPGGGVPGVGVPGVGVPGGGVPGAGVPGVGVPGVGVPGVGVPGGGVPGAGVPGGGVPGVGVPGVGVPGGGVPGAGVPGVGVPGVGVPGVGVPGGGVPGAGVPGGGVPGVGVPGVGVPGGGVPGAGVPGVGVPGVGVPGVGVPGGGVPGAGVPGGGVPGVGVPGVGVPGGGVPGAGVPGVGVPGVGVPGVGVPGGGVPGAGVPGGGVPGWP |  |  |  | synergistic effect |  | equivalent or greater extent than VX-809 and VX-661 | 1200 | 0.355 | corrected
